Source: US20230097015A1 (SEOUL NATIONAL UNIVERSITY R AND DB FOUNDATION, published 2023)

Experiments:
[1] = biological target: T1, TycB COM^A-CHS
T1 chain: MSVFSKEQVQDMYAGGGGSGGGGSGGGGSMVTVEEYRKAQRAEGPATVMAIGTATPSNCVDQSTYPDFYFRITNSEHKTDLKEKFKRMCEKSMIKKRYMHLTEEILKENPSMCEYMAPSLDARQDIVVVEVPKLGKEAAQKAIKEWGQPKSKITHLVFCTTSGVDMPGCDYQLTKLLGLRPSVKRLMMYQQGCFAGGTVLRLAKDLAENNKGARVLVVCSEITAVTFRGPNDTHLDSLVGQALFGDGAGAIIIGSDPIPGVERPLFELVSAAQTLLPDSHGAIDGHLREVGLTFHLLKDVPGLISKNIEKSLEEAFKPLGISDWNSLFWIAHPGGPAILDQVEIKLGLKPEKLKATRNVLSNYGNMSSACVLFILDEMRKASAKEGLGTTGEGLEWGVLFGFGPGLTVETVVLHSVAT

[2] = biological target: T2, TycC COM^A-CHS
T2 chain: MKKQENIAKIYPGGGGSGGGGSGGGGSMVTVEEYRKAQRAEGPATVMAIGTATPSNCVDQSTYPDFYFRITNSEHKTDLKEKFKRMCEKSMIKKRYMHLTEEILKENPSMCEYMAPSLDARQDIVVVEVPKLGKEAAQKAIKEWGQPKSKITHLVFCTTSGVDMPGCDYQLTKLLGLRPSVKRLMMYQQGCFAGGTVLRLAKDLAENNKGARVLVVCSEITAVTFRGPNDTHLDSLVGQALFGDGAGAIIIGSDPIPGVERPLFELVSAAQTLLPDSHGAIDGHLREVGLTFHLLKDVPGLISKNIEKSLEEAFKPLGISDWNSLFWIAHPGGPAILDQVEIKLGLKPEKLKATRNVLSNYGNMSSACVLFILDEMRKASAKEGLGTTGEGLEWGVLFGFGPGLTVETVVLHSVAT

[3] = biological target: T3, MlnE COM^A-CHS
T3 chain: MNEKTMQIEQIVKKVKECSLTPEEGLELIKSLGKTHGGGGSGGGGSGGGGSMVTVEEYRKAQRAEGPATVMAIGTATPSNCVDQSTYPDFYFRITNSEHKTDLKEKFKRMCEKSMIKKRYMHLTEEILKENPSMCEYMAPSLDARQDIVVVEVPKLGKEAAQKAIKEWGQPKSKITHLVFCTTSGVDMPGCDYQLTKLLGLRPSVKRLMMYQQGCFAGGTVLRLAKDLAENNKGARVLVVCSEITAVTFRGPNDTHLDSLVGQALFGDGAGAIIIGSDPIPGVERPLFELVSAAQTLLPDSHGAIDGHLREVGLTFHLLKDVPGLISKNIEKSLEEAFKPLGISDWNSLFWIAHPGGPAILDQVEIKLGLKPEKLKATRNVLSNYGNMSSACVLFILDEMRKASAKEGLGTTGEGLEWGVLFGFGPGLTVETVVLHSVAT

[4] = biological target: T4, MlnC COM^A-CHS
T4 chain: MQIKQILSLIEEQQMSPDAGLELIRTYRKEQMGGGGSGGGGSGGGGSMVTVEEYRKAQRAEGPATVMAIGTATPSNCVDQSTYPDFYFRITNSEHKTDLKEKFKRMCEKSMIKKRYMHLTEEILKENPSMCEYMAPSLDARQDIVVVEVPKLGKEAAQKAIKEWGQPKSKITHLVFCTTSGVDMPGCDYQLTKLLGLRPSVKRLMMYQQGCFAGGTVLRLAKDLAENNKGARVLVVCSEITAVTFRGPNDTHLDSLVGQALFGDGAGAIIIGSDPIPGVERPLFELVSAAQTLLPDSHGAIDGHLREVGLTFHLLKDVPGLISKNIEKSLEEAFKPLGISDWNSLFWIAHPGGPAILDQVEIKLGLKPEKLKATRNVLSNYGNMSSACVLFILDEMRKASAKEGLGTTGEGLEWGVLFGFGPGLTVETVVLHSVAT

[5] = biological target: T5, Kj12C COM^A-CHS
T5 chain: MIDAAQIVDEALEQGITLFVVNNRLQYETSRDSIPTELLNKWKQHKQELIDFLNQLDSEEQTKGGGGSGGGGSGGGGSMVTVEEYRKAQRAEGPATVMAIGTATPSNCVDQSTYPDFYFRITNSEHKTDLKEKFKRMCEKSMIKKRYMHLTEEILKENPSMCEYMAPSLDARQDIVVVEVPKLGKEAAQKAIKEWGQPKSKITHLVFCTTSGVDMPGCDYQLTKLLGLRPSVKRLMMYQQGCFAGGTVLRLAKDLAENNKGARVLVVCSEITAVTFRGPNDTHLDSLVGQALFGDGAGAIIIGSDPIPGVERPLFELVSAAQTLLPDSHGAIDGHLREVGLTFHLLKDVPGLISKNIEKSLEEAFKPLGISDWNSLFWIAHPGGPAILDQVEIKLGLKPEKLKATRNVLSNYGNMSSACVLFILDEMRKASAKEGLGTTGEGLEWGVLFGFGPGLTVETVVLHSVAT

B1: 4CL-TycA COM^D (protein)
chain: MAPQEQAVSQVMEKQSNNNNSDVIFRSKLPDIYIPNHLSLHDYIFQNISEFATKPCLINGPTGHVYTYSDVHVISRQIAANFHKLGVNQNDVVMLLLPNCPEFVLSFLAASFRGATATAANPFFTPAEIAKQAKASNTKLIITEARYVDKIKPLQNDDGVVIVCIDDNESVPIPEGCLRFTELTQSTTEASEVIDSVEISPDDVVALPYSSGTTGLPKGVMLTHKGLVTSVAQQVDGENPNLYFHSDDVILCVLPMFHIYALNSIMLCGLRVGAAILIMPKFEINLLLELIQRCKVTVAPMVPPIVLAIAKSSETEKYDLSSIRVVKSGAAPLGKELEDAVNAKFPNAKLGQGYGMTEAGPVLAMSLGFAKEPFPVKSGACGTVVRNAEMKIVDPDTGDSLSRNQPGEICIRGHQIMKGYLNNPAATAETIDKDGWLHTGDIGLIDDDDELFIVDRLKELIKYKGFQVAPAELEALLIGHPDITDVAVVAMKEEAAGEVPVAFVVKSKDSELSEDDVKQFVSKQVVFYKRINKVFFTESIPKAPSGKILRKDLRAKLANGLGGGGSGGGGSERTPSDFSVKGLQMEEMDDIFELLANTLR
production of naringenin (UPLC-qTOF-HR-MS), two-step in vitro reaction [1]: the productivity by the metabolons with the remaining four pairs showed improvement

B2: 4CL-TycB COM^D (protein)
chain: MAPQEQAVSQVMEKQSNNNNSDVIFRSKLPDIYIPNHLSLHDYIFQNISEFATKPCLINGPTGHVYTYSDVHVISRQIAANFHKLGVNQNDVVMLLLPNCPEFVLSFLAASFRGATATAANPFFTPAEIAKQAKASNTKLIITEARYVDKIKPLQNDDGVVIVCIDDNESVPIPEGCLRFTELTQSTTEASEVIDSVEISPDDVVALPYSSGTTGLPKGVMLTHKGLVTSVAQQVDGENPNLYFHSDDVILCVLPMFHIYALNSIMLCGLRVGAAILIMPKFEINLLLELIQRCKVTVAPMVPPIVLAIAKSSETEKYDLSSIRVVKSGAAPLGKELEDAVNAKFPNAKLGQGYGMTEAGPVLAMSLGFAKEPFPVKSGACGTVVRNAEMKIVDPDTGDSLSRNQPGEICIRGHQIMKGYLNNPAATAETIDKDGWLHTGDIGLIDDDDELFIVDRLKELIKYKGFQVAPAELEALLIGHPDITDVAVVAMKEEAAGEVPVAFVVKSKDSELSEDDVKQFVSKQVVFYKRINKVFFTESIPKAPSGKILRKDLRAKLANGLGGGGSGGGGSEYTPSDLGDEELSMEELENILEWI
production of naringenin (UPLC-qTOF-HR-MS), two-step in vitro reaction [2]: the productivity by the metabolons with the remaining four pairs showed improvement

B3: 4CL-MlnD COM^D (protein)
chain: MAPQEQAVSQVMEKQSNNNNSDVIFRSKLPDIYIPNHLSLHDYIFQNISEFATKPCLINGPTGHVYTYSDVHVISRQIAANFHKLGVNQNDVVMLLLPNCPEFVLSFLAASFRGATATAANPFFTPAEIAKQAKASNTKLIITEARYVDKIKPLQNDDGVVIVCIDDNESVPIPEGCLRFTELTQSTTEASEVIDSVEISPDDVVALPYSSGTTGLPKGVMLTHKGLVTSVAQQVDGENPNLYFHSDDVILCVLPMFHIYALNSIMLCGLRVGAAILIMPKFEINLLLELIQRCKVTVAPMVPPIVLAIAKSSETEKYDLSSIRVVKSGAAPLGKELEDAVNAKFPNAKLGQGYGMTEAGPVLAMSLGFAKEPFPVKSGACGTVVRNAEMKIVDPDTGDSLSRNQPGEICIRGHQIMKGYLNNPAATAETIDKDGWLHTGDIGLIDDDDELFIVDRLKELIKYKGFQVAPAELEALLIGHPDITDVAVVAMKEEAAGEVPVAFVVKSKDSELSEDDVKQFVSKQVVFYKRINKVFFTESIPKAPSGKILRKDLRAKLANGLGGGGSGGGGSDTADGEIMSLLEKAQTGEMNTKETSELIEELLFHE
production of naringenin (UPLC-qTOF-HR-MS), two-step in vitro reaction [3]: the productivity by the metabolons with the remaining four pairs showed improvement

B4: 4CL-MlnB COM^D (protein)
chain: MAPQEQAVSQVMEKQSNNNNSDVIFRSKLPDIYIPNHLSLHDYIFQNISEFATKPCLINGPTGHVYTYSDVHVISRQIAANFHKLGVNQNDVVMLLLPNCPEFVLSFLAASFRGATATAANPFFTPAEIAKQAKASNTKLIITEARYVDKIKPLQNDDGVVIVCIDDNESVPIPEGCLRFTELTQSTTEASEVIDSVEISPDDVVALPYSSGTTGLPKGVMLTHKGLVTSVAQQVDGENPNLYFHSDDVILCVLPMFHIYALNSIMLCGLRVGAAILIMPKFEINLLLELIQRCKVTVAPMVPPIVLAIAKSSETEKYDLSSIRVVKSGAAPLGKELEDAVNAKFPNAKLGQGYGMTEAGPVLAMSLGFAKEPFPVKSGACGTVVRNAEMKIVDPDTGDSLSRNQPGEICIRGHQIMKGYLNNPAATAETIDKDGWLHTGDIGLIDDDDELFIVDRLKELIKYKGFQVAPAELEALLIGHPDITDVAVVAMKEEAAGEVPVAFVVKSKDSELSEDDVKQFVSKQVVFYKRINKVFFTESIPKAPSGKILRKDLRAKLANGLGGGGSGGGGSKNEDQEILFLLEQLKNGELSADQVYQLLEGK
production of naringenin (UPLC-qTOF-HR-MS), two-step in vitro reaction [4]: the productivity by the metabolons with the remaining four pairs showed improvement
production of naringenin (UPLC-qTOF-HR-MS), two-step in vitro reaction, against free enzymes [4]: improved by 2 fold or more compared to that by free enzymes (Free) after 20 minutes of the reaction

B5: 4CL-Kj12B COM^D (protein)
chain: MAPQEQAVSQVMEKQSNNNNSDVIFRSKLPDIYIPNHLSLHDYIFQNISEFATKPCLINGPTGHVYTYSDVHVISRQIAANFHKLGVNQNDVVMLLLPNCPEFVLSFLAASFRGATATAANPFFTPAEIAKQAKASNTKLIITEARYVDKIKPLQNDDGVVIVCIDDNESVPIPEGCLRFTELTQSTTEASEVIDSVEISPDDVVALPYSSGTTGLPKGVMLTHKGLVTSVAQQVDGENPNLYFHSDDVILCVLPMFHIYALNSIMLCGLRVGAAILIMPKFEINLLLELIQRCKVTVAPMVPPIVLAIAKSSETEKYDLSSIRVVKSGAAPLGKELEDAVNAKFPNAKLGQGYGMTEAGPVLAMSLGFAKEPFPVKSGACGTVVRNAEMKIVDPDTGDSLSRNQPGEICIRGHQIMKGYLNNPAATAETIDKDGWLHTGDIGLIDDDDELFIVDRLKELIKYKGFQVAPAELEALLIGHPDITDVAVVAMKEEAAGEVPVAFVVKSKDSELSEDDVKQFVSKQVVFYKRINKVFFTESIPKAPSGKILRKDLRAKLANGLGGGGSGGGGSLLKEKRKHFQAEQNSSQEYLRGEI
production of naringenin (UPLC-qTOF-HR-MS), two-step in vitro reaction [5]: productivity by 2-step metabolon_5, Kj12B-C was found similar to that by free enzymes (2-step_control: Free)
